{
  "source": "patent US20130273553A9",
  "about": "“STABILIZATION OF CYCLIC PEPTIDE STRUCTURES” (priority 2007, published 2013)",
  "key": {"LexA": {"target": "LexA (Escherichia coli, UniProt P0A7C2)", "sequence (P0A7C2 whole entry)": "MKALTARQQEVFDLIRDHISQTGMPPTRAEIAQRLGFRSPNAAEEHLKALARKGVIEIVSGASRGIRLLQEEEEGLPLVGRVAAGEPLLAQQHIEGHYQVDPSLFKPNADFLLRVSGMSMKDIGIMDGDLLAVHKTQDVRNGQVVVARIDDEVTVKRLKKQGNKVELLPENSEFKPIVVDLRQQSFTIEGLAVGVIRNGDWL", "details": "BL21-CP cells expressing the lariat, 0.1 μg/mL MMC, 0-3 hours", "from_the_text": "FIG. 21. Biological Activity of L2 Lariat and Cyclic Peptide. […] Error bars represent the standard deviation of three independent experiments."}, "[1]": {"system": "SOS-regulated sulA promoter (sulA-GFP)", "experiment": "MMC-induced expression of sulA-GFP (SOS response genes), flow cytometry", "format": "cell-based, E. coli", "details": "SMR6039-DE3 with pETIL-L2, IPTG-induced versus uninduced, 0.1 μg/mL MMC", "from_the_text": "(§1) FIG. 21. Biological Activity of L2 Lariat and Cyclic Peptide.\nWe used the SMR6039 E. coli strain, which expresses GFP under the control of a SOS-regulated sulA promoter (Hastings, P. J. et al. (2004) PLoS Biol. 2:e399) to monitor induction of the SOS response pathway. We used the λDE3 Lysogenization Kit (Novagen) to modify SMR6039 to express T7 RNA polymerase, which allows expression of the L.2 lariat from the T7 promoter in pETIL-L2 plasmid. […] We measured the GFP fluorescence of the samples using flow cytometery (Epics X L, Coultier, Mississauga, ON). We scored cells as positive for SOS induction in they expressed more than one fluorescence unit of GFP."}, "BL21-CP cells": {"system": "BL21-CP cells", "experiment": "Bacterial viability (survival) assay with and without MMC", "format": "cell-based, E. coli", "details": "one hour", "procedure": "as §1\nFIG. 22. […] Survival assay for BL21-CP cells treated synthetic linear L2 peptide. Cell survival is reported relative to the untreated control.\nWe performed cell viability assays as described by Lin and Little (Lin, L. L. & Little, J. W. (1988) Bacteriol. 170:2163-2173). For assays where L2 lariat is expressed from pET28b plasmid, we cultured BL21(DE3)-CP containing pETIL-L2 or pETIL-01 to an OD600 of 0.4 in LB-KAN at 37° C. We split the samples in two and induced one sample with 1 mM IPTG for 1 hour and left the other the other sample uninduced. […] We removed 10 μL and diluted it […] in ice cold LB (1 mL) for a zero time point control. We incubated the remaining sample at 37° C. for 1 hour and then removed 10 μL and diluted 1000-fold into 1 mL ice-cold LB. We plated a 60 μl aliquot from the 0 and 1 hour samples on LB plates and incubated the plates at 37° C. overnight."}, "[2]": {"experiment": "Amount of lactone-cyclized L2 lariat, ESI-TOF MS and Na18OH cleavage", "format": "physicochemical", "from_the_text": "FIG. 17. Analysis of L2 Lariat. […] (i) Yeast growth on nonselective His^−,Trp^− glucose media. […] (i) Lariat cyclized through a lactone bond. (ii) Lariat cleaved prior to Na^18OH treatment.\nFIG. 20. Quantification of Lariat Prior to MS analysis. (a) Analysis of ^18O incorporation at the tyrosine carboxylic acid at position (IN−1). Trypsin digest of the Na^18OH treated lariat produces a peptide fragment containing tyrosine at position (IN−1) ([…]). The ^16O product has a calculated mass of 966.420 m/z and the ^18O product has a calculated mass of 968.420 m/z. (b) Mass spectrometry analysis of […] peptide fragment from the Na^16OH or Na^18OH treated samples over layed with the theoretical isotope distribution (MS-ISOTOPE software). In the Na^18OH treated sample there is a large deviation from the theoretical distribution indicating the presence of more than one peptide. […] The 1+ and 2+ charged fragments were analyzed and similar results were observed. Only the 1+ charge is shown. (d) Overlay of the sum of the calculated contributions of the ^18O and […] on the observed […] peptide fragment spectrum. (e) Analysis of ^18O incorporation at the serine side chain at position (IC+1). Trypsin digest of the Na^18OH treated lariat produces a peptide fragment containing serine at position (IC+1) ([…]). The mass of this fragment is 2590.352 m/z corresponding to a product 1 Da heavier than the predicted ^18O incorporated product. A 1 Da shift can be attributed to deamidation of asparagine. […] The 2+, 3+4+and 5+charged fragments were analyzed and similar results were obtained. […] (h) Overlay of the sum of the calculated contributions of the ^18O and ^16O peptides on the observed […] peptide fragment spectrum.\nWe used LC-ESI-TOF MS to confirm the molecular weight of the His-tag lariat purified from E. coli. To confirm the presence of the lariat lactone prior to MS analysis, we treated His-tag lariat with 0.5 M Na^18OH, purified the products using reverse-phase HPLC, digested them with trypsin, and analyzed the molecular weight of the trypsin fragments using LC-ESI-TOF MS. […]"}, "[3]": {"details": "His-tag lariat from pETIL-L2 in BL21-CP"}},
  "data": [
    {"substance": "L2 lariat: anti-LexA lariat, lactone-cyclized noose sequence (RSWDLPGEY), expressed from Ssp DnaE lariat intein with Asn to Ala at IC−1 (G7)", "values": [
      {"measurement": "MMC-induced LexA cleavage", "setting": "LexA", "result": "not observed after three hours"},
      {"measurement": "percentage of GFP expressing cells (sulA-GFP) after MMC", "setting": "[1]", "result": "decreases"},
      {"measurement": "viability with lariat expression plus MMC", "setting": "BL21-CP cells; of the control, IPTG induction plus MMC 0.1 μg/mL", "result": "< 1", "unit": "%"},
      {"measurement": "viability on expression of the lariat alone", "setting": "BL21-CP cells; of the uninduced controls, IPTG induction, no MMC, 0.85% NaCl", "result": "~35", "unit": "%"},
      {"measurement": "fraction of product corresponding to hydrolyzed lariat (8669 Da) by MS", "setting": "[2]; [3]", "result": 85, "unit": "%"},
      {"measurement": "fraction of product corresponding to the L2 lariat (8651 Da) by MS", "setting": "[2]; [3]", "result": 15, "unit": "%"},
      {"measurement": "lariat cyclized prior to MS analysis", "setting": "[2]; from fraction of 18O incorporated after Na18OH cleavage and trypsin digest", "result": 46, "unit": "%"}
    ]}
  ]
}
